Data from patent publication US20120219559A1 (Johns Hopkins, published 2012).
Each block holds one binder with its values, some of them ahead of it.

B2: human B7-2Ig fusion protein (Fc fusion, UniProt P42081 26-245, looked up)
chain: LKIQAYFNETADLPCQFANSQNQSLSELVVFWQDQENLVLNEVYLGKEKFDSVHSKYMGRTSFDSDSWTLRLHNLQIKDKGLYQCIIHHKKPTGMIRIHQMNSELSVLANFSQPEIVPISNITENVYINLTCSSIHGYPEPKKMSVLLRTKNSTIEYDGVMQKSQDNVTELYDVSISLSVSFPDVTSNMTIFCILETDKTRLLSSPFSIELEDPQPPPDH
notes: Bought from R&D Systems; Ig (Fc) part not given

How the values were obtained:
[1] = molecular target: T1, human B7-1 (CD80) expressed on 293T cells (human, UniProt P33681 35-288); experiment: flow cytometry on 293T cells transfected with B7-1
T1 construct: whole, on cells
T1 sequence (looked up): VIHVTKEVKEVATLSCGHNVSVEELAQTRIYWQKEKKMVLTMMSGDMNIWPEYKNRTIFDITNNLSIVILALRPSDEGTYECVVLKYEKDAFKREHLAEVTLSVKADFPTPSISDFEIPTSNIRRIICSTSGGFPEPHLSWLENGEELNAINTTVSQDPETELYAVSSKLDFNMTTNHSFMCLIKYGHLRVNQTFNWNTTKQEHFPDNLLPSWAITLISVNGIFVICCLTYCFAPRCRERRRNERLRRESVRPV

[2] = molecular target: T2, human B7-2 (CD86, B70) expressed on 293T cells (human, UniProt P42081 24-329); experiment: flow cytometry on 293T cells transfected with B7-2
T2 construct: whole, on cells
T2 sequence (looked up): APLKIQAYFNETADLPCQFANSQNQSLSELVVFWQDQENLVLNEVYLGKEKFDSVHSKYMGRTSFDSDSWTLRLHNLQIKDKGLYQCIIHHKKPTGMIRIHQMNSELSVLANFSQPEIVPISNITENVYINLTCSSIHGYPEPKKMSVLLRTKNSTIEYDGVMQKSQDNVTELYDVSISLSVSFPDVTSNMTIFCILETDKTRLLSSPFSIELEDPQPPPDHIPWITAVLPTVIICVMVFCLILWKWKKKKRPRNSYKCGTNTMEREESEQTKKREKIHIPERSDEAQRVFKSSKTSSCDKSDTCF

[3] = molecular target: T3, human B7-H7, full length, expressed on transfected cells (B7-H7+ cells) (human, UniProt Q9UM44 23-414); experiment: flow cytometry on B7-H7 transfected cells (sheet: B7-H7+ 293T; legend: CHO cells); B7-H7CRIg at 10 µg/ml
T3 construct: also called HHLA2
T3 sequence: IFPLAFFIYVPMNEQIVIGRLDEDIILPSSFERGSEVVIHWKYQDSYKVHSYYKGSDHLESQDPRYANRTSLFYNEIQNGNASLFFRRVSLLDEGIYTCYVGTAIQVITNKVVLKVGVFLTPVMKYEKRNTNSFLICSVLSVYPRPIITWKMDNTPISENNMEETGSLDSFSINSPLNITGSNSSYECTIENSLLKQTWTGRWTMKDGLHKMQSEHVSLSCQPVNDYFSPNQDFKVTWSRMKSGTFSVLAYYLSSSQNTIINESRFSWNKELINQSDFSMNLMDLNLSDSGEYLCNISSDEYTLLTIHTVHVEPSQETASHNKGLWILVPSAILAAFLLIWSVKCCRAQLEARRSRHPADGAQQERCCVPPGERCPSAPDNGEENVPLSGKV

[4] = molecular target: T4, human B7-H3, 2Ig form, expressed on 293T cells (human, UniProt Q5ZPR3-2 29-316); experiment: flow cytometry on 293T cells transfected with B7-H3 (2Ig)
T4 construct: whole, on cells
T4 sequence (looked up): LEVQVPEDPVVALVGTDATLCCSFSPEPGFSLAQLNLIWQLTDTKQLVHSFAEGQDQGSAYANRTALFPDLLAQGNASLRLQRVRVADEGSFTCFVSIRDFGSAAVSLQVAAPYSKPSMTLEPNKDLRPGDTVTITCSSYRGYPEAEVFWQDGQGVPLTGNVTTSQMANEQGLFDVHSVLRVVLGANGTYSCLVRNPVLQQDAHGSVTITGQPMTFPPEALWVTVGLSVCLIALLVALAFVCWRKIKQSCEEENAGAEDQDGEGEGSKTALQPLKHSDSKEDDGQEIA

[5] = molecular target: T5, human B7-H2, full length, expressed on cells (B7-H2+293T cells) (human, UniProt O75144 19-302); experiment: flow cytometry on 293T cells transfected with B7-H2
T5 construct: This id also stands for endogenous B7-H2 on monocyte-derived dendritic cells in the functional rows; also called ICOSL; ICOSLG
T5 sequence: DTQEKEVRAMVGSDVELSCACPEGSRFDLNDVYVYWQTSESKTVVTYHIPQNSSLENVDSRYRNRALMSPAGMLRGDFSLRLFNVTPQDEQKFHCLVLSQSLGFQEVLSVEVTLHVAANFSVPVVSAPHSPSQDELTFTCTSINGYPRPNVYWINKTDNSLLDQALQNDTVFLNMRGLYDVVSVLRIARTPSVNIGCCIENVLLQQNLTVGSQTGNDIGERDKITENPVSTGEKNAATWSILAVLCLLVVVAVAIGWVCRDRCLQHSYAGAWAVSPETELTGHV

[6] = molecular target: T6, human B7-DC expressed on 293T cells (human, UniProt Q9BQ51 20-273); experiment: flow cytometry on 293T cells transfected with B7-DC
T6 construct: whole, on cells
T6 sequence (looked up): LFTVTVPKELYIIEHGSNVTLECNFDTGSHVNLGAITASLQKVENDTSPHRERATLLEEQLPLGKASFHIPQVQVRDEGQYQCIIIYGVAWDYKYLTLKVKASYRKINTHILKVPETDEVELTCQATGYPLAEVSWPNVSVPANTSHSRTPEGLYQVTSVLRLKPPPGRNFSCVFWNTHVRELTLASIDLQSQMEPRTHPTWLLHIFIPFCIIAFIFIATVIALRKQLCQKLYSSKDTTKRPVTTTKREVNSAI

[7] = molecular target: T7, human B7-H3, 4Ig form, expressed on 293T cells (human, UniProt Q5ZPR3 29-534); experiment: flow cytometry on 293T cells transfected with B7-H3 (4Ig)
T7 construct: whole, on cells
T7 sequence (looked up): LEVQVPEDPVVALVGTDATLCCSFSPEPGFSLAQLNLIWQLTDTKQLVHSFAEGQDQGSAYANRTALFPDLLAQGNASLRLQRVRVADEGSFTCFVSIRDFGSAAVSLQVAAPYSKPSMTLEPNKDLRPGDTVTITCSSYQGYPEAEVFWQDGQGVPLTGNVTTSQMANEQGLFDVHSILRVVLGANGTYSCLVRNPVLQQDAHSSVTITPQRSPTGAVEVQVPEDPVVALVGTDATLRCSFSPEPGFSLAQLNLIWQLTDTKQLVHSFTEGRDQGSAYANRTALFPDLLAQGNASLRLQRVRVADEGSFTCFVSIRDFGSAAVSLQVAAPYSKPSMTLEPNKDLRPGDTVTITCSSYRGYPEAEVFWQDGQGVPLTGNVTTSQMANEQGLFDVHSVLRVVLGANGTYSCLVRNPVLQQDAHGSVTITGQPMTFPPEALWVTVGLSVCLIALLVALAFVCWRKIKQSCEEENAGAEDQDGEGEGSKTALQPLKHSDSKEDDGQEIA

[8] = molecular target: T8, human B7-H4 expressed on 293T cells (human, UniProt Q7Z7D3 25-282); experiment: flow cytometry on 293T cells transfected with B7-H4
T8 construct: whole, on cells
T8 sequence (looked up): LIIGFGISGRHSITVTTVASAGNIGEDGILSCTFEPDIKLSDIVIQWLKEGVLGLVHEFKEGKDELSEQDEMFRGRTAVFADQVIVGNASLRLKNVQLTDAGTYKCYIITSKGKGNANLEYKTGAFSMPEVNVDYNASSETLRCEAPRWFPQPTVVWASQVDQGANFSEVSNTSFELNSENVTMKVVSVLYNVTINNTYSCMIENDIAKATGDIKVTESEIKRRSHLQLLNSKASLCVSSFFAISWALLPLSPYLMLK

[9] = molecular target: T9, human B7-H1 expressed on 293T cells (human, UniProt Q9NZQ7 19-290); experiment: flow cytometry on 293T cells transfected with B7-H1
T9 construct: whole, on cells

[10] = molecular target: T6, human B7-DC expressed on 293T cells; experiment: CDS well image, 293T cells transfected with the human gene, stained with the human fusion protein
[11] = molecular target: T2, human B7-2 (CD86, B70) expressed on …; experiment: as above
[12] = molecular target: T1, human B7-1 (CD80) expressed on 293T …; experiment: as above
[13] = molecular target: T9, human B7-H1 expressed on 293T cells; experiment: as above
[14] = molecular target: T5, human B7-H2, full length, expressed on …; experiment: flow cytometry on 293T cells transfected with full length human B7-H2; B7-2Ig alone
[15] = molecular target: T10, human B7-H2Ig fusion protein (human, UniProt O75144 19-258); experiment: flow cytometry on 293T cells transfected with human ICOS
T10 construct: Ig (Fc) part not given
T10 sequence: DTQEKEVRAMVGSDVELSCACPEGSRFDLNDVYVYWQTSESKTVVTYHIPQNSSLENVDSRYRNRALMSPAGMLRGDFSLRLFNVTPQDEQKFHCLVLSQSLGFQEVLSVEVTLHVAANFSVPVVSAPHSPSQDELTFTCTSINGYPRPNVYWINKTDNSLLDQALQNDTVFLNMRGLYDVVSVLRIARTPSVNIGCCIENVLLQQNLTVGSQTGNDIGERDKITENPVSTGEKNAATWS

B7-DCIg = molecular target: T11, B7-DCIg (Homo sapiens, UniProt Q9BQ51); experiment: CDS well image, 293T cells transfected with the human gene, stained with the human fusion protein
T11 construct: Ig fusion protein purchased from R&D systems; also called human B7-DCIg fusion protein
T11 sequence (fusion protein, looked up): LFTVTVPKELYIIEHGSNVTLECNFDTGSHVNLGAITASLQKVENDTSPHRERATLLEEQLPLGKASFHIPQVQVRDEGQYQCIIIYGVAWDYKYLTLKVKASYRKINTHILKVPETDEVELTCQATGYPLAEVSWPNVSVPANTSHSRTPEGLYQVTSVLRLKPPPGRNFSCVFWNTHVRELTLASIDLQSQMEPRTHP

[16] = molecular target: B2; experiment: as above
B7-H1Ig = molecular target: T12, B7-H1Ig (Homo sapiens, UniProt Q9NZQ7); experiment: as above
T12 construct: Ig fusion protein purchased from R&D systems; also called human B7-H1Ig fusion protein

[17] = molecular target: T13, human B7-1Ig fusion protein (human, UniProt P33681 35-242); experiment: as above
T13 construct: Bought from R&D Systems; Ig (Fc) part not given
T13 sequence (looked up): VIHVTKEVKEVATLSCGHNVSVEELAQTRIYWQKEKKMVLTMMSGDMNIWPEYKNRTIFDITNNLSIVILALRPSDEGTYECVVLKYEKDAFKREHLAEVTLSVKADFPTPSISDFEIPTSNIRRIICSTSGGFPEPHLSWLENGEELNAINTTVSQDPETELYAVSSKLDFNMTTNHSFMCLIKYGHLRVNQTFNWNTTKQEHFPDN

T9 sequence (Q9NZQ7 19-290): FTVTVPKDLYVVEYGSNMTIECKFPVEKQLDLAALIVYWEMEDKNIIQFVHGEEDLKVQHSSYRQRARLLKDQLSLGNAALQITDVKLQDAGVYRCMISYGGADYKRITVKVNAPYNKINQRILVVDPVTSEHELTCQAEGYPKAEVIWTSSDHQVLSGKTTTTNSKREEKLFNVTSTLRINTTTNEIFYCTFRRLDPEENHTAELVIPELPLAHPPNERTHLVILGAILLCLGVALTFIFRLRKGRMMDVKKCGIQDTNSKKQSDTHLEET
T12 sequence (Q9NZQ7 19-239 limits assumed): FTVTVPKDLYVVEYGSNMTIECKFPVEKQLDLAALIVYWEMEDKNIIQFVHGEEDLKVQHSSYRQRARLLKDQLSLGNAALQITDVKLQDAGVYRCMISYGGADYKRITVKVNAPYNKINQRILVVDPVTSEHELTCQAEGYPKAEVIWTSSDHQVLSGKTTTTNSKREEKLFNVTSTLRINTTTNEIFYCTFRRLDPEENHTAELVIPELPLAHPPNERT

- binding result [1]: no binding (tested: 10 µg/ml)
- binding result [2]: no binding (tested: 10 µg/ml)
- binding result [3]: binds
- binding result [4]: no binding (tested: 10 µg/ml)
- binding result [5]: no binding (tested: 10 µg/ml)
- binding result [6]: no binding (tested: 10 µg/ml)
- binding result [7]: no binding (tested: 10 µg/ml)
- binding result [8]: no binding (tested: 10 µg/ml)
- binding result [9]: no binding (tested: 10 µg/ml)
B1: human B7-H7CRIg fusion protein (Fc fusion)
chain: LSVQQGPNLLQVRQGSQATLVCQVDQATAWERLRVKWTKDGAILCQPYITNGSLSLGVCGPQGRLSWQAPSHLTLQLDPVSLNHSGAYVCWAAVEIPELEEAEGNITRLFVDPDDPTQNRNRIASFPG
notes: also called B7-H67CRIg; not shown: Ig Fc tag; made from pMIgV or pHIgV plasmid

Binder: B2
- binding result [10]: no binding
- binding result [11]: no binding
- binding result [12]: no binding
- binding result [13]: no binding
- binding result [14]: no binding

- binding result [15]: binds
- binding result (B7-DCIg): no binding
- binding result [16]: no binding
- binding result (B7-H1Ig): no binding
- binding result [17]: no binding
B3: human ICOS, full length, expressed on cells (ICOS+293T cells) (receptor)
chain: EINGSANYEMFIFHNGGVQILCKYPDIVQQFKMQLLKGGQILCDLTKTKGSGNTVSIKSLKFCHSQLSNNSVSFFLYNLDHSHANYYFCNLSIFDPPPFKVTLTGGYLHIYESQLCCQLKFWLPIGCAAFVVVCILGCILICWLTKKKYSSSVHDPNGEYMFMRAVNTAKKSRLTDVTL
notes: This id also stands for ICOS on human T cells in the functional rows
